From the domain aggregation screens of Martell et al. (2025)

assay: soluble fraction after stress (log2 fold change); higher = more stays soluble; pooled small domains, quantitative proteomics; conditions: stress: 75 degC
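Further: 20 min heating vs room temperature control held 20 min.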

Row | Sequence | soluble fraction (log2)
1 | HMAAADLNMRAKLADLGGMSYGELSIWEKTHGMEFAAWEHEWEKLNSGTQADGLKFPKHLPEGFPT | 0.185
2 | HMAAAKDVMDWQNAIRGLTDAKGKPYSPTYLKTVHNQLSALFNHAVRYYGLQVNPAAKAGNMGVEE | -0.131
3 | HMAADDGSARAEQLREMYSLISGLDKLDKAIILMWLDERSYDEIAEVTGFTRNNVATRLHRIKSRLARQSN | -1.66
4 | HMAAEIGSGVVDAYDLRLRSQPSTDAETIIYLDNGAKLSVQEDLGDWYKVVSGTYTGYVSAEYVAYTPSPE | -0.806
5 | HMAAELHPYGADSYRGDNPPAGYEIKAKEESKKFHTPSSPWYGRTIAEIWFRTEEAAEAAGFINAVK | -0.246
6 | HMAAELQALSVRELEVLDQLAGGASNREIAQRLYISENTVRNHVHSILTKLKLQNRTQLVGMT | -0.981
7 | HMAAESWTEKSRALAAAGLVVMGRDAQTKIEELTNLAPLIEAANASNTRLLTSQSIDELLSIVPTEENL | 0.0818
8 | HMAAGKGVTTGSVRLRKGSNTDSAIIATLKKDTELILYGKKDGWYSVKTSDGTEGFVSSKYVKVTEAY | 0.61
9 | HMAAGLTPKQKAFADNYIKNGGNAAEAARAAGYSLKNVGANAGKLLKNPKIAAYIAEKQAELDRRNGT | 0.196
10 | HMAAINPSALREPATPPEQLSAGDSVLHPRFGRGEILELQQQGGDPRAIVQFINEPKPRTLVLRYAQLRK | -0.138
11 | HMAAKADAVKKAIAAIGKVDASEDSKAKVEAARKAYAALTEDQKKLVEASQLKLLTEAEAAYQQAVEESKK | -0.283
12 | HMAAMSLGERIGAHRKRMGISQEELGHRMGVSRQAVSKWETGRAVPDMENLLALARLFGVPVSELAD | -0.129
13 | HMAAPVGLTQRQMEVAALVADGLTNAEIGRRLHITERSAESHLERVRIRLGFRSRAQVAAWFVTQE | -3.56
14 | HMAATHYEGIKQDGETDDAVIERVLTGLSVTANKDDIFIVKTLIAGTKYSYTAYVYNGNAWAAM | -1.38
15 | HMAATSTGFPGVEVRGNSIRVFFMYKRDRHAHTLPLEPTRNNIKHADQLRSAALFALRNGTYNEADFFPHS | -1.6
16 | HMAATVKVPDLTKMTPDEAQRALGQVGLKGKQGDDVDDDSVPVGYIAKQDEAPNSDAKAGDTITYHL | 0.15
17 | HMAAVSSHAVKQRIRSLIQAEDPASPLSDEALRLALSALGVEVSRRAVAKYRTSMDIPASSQRKK | -0.656
18 | HMADEDTILALAKEILASWPDKVEAYKNGNKGMLGLFMGELMKKSGGKANPKSASALIQKLLE | -0.13
19 | HMADEIQLVVQVNGKLRGRIMVAPDASREEIEKTALADADVSRFLGDTPVKKVIIVPKRLVNIVAPAPK | -1.08
20 | HMADENIELRKAGLKVTLPRVKILQILEAAKEPHMSAEDVYKALMEANEEVGLATVYRVLTQFESAGL | -0.245
21 | HMADGKWTLTDAGYTFTYSDGRKARGTWEDIDGEWYHFDRNGIMETGWKTVGNIRYHFNQDGSL | -1.52
22 | HMADIGRMKELIDILNRASAVYYQGKDEIMSNFEYDKLYDELVSLEKESGLVLAGSPTQKVGY | -0.179
23 | HMADKHVAAALLKLMDHLVGGRQYAFMKGRLTINKKVVLEATEVSAYRRGTGLSDADWQQRYE | -2.06
24 | HMADLKRLNEQIHYLGQYLSTKATYKEFLQANNKKIYRSEHQDEIAKYEEAAQFLKRSSPDGTIPTMKDLR | -0.27

Row | Sequence | soluble fraction (log2)
25 | HMADLSAYAGKEGMTDSVLRPSGKVDIEGHILDAVSRGDFIEKGKRVIVIKAEGSYLVVKKRMP | -1.84
26 | HMADLTEEQKTLFRLIRDLQPVSSKTLLENSGFTRSTQTRLLNGLIEKQIVIRTGNGPATRYSLR | -1.26
27 | HMADLTIDGVEYTKVSPTGTLTLEKVYTKNVTPADGQYYIQTGTKTVRVATDAEVAVIKAGGF | 0.153
28 | HMADNKDMQAAFMEALNGLKEYAKVNGNIVTKEDVNSYFKDMHLDDNKYSMITGYLMANGITIKG | 0.179
29 | HMADPRFHSEIMLSKIESLLSGKADSDVSNYSIQGRSLTKMSLQELMDARESYDGLVKSEKAKLDAKY | 0.0156
30 | HMADPVTPQDLIRWSEALAGIARTGLGFTQSLYEQERFEEVLAVAADMRVAAGSSYNPDDLVHEWMKSVG | -0.565
31 | HMADQVVGQLGMVTQRIDNLQQTGRVSANGLDWAARSENGQPIPQGMPVEVLRIEGVKLIVRPVN | -0.114
32 | HMADTIEVVVQVNGKVRAKISTSPEVFADSTKLQELALADANVQKFIAGQTIRKVIIPKGTKLLNIV | -0.198
33 | HMADTSPEGVQKLIKAFEQFGVSKDDIEGFIQRRVDAITPANVVSLRKIFTSLRDGMSSAKDWFKGA | 0.095
34 | HMADVIKLVNTSVLNVRSGAGINYSKIGSLTQGTKVNIISESNGWSKINYNGKIGYISSQYVSEVS | -1.92
35 | HMADVLLKHGSSGDYVWDLQYRLKTLSLFDQEMTGYFGPHTRQAVVNFQRKYGLPADGVVGPATWRALRK | -2.41
36 | HMADVPSTIFEAYRILGLNPEAPPVAVKKVVDALRMSWHPDHARSEPDRRHREERIKQINAAWDLLKGV | -0.183
37 | HMADVYFDGKFLGETPVTVAVSTTGKPAHEISLIRGGYEPWSTTYQGNPRPGQTATVMAILVHA | 0.31
38 | HMAEAAVELSQQILARLLEAGGSLPLSDKSSPEDIHRLFGVSKRTFKKAIGGLYKKGLILIHPERIELP | -1.37
39 | HMAEAETVKFVGNSLLLVSGAAKGERLSVYTVGGQHVLSADATKPVDVAALHSGVYVVRTTNGVITKIVK | -1.25
40 | HMAEATATVTASEMVVRSGPSSSYSVLGSLEKGTVVTVLAASDGIAKISYKGNTGYARIVDMELNSA | -0.612
41 | HMAEDDAVQKAVREAVAESADAVADYKAGSERALNFIVGVVMKKTRGKASPGEVHRLVKAEVEK | 0.595
42 | HMAEDLRTLDGIDEDLLRDLAQAGITTRDGLAELSIDELREITGVEPGEAEKIILAARAHWFETDE | 0.0602
43 | HMAEEGEQAASNTAAQAEDRAAELAAAGEKGKQITKTLVAEFGIPKNEAYRLALDAVAAVKAER | -0.265
44 | HMAEEPLRIWTDLQGRSIEASFIKFSGNNIVIKMKSGRDYEVARSLFSPGDQKYLSDLKKSTPE | -1.5
45 | HMAEERVLSVPQSLAGERLDAALASLMPDYSRSRLASWIKEGLVTVDGAGAMPKQKLWGGETLRVQAQPT | 0.373
46 | HMAEKAVELTENEKAIQTILSNGALEIGELKTKLELSGKQWDVALKGLAKHGITQVSKVEGVVTVGL | 0.359
47 | HMAEKGIGRVNADWLNMRTSPGGEVLTVLKQGTELQVIGRSGSWLEVQHGNEQGYVSSRYITIQP | -0.356
48 | HMAEKVIVVADSITVGELAEKLNLPVTNLIGELFKNGIVSTINQRIDFETASIIVEELGLDVELERK | -0.137

Row | Sequence | soluble fraction (log2)
49 | HMAELNLPVRKIGGEDYYYRQVKKKETIYGISKELGITKEDIIKYNPSVASGLQRNQILYFPVKDFK | -0.327
50 | HMAELVISVKADGTIHYQDRQLTKEALAAVLETRPEALLNLYVDEKAPFEAFVGVVDIARLKRGGHFVIST | -1.94
51 | HMAENPAYTKGVVNRLYKIRATPYYSYSYNVDQKTYEGRGKQYGEYENLHIGDTITVYYQRSNPSNSEA | -0.288
52 | HMAEPIEKIIIEGNQRIEALTIQSYLLLRVGEPFNRQLMNQTLKSLYATGYFSDVAVTRVSSSLLVK | 0.153
53 | HMAEPLEIGDTVRIIDGFYGGEIGVISELVNPDAKNAEFEQVRVRLDQDTELALPIHNVERVRL | 0.498
54 | HMAEPRVQEVYFEFDGKQVEAGQVVSLIEQAYKNEGHQIGRIKDLKVYINSEEGKAYYVINGDDGEGKYIE | 0.0727
55 | HMAESLHVTAAALFEGRAMLGIDGSRRLLRVGETSPEGVKLVSATAREAVIEIDGRRQTLAPGRDT | -0.133
56 | HMAESSLPKMPRDESKYIYHSVQPGETVYSLSKRYSVSESDIVKSNPGIDITKLSLGLEVAIPRI | 0.691
57 | HMAEVAFEEQNIEQISNLLLRIQAIFAELMTALDKEKGGEIADNLERLYVFFLEKLGDANVRKDPAP | 0.585
58 | HMAEVHVDGVTYQFSNPEQAVKFARKIAKELGLKVEVHGETVHVK | -0.0253
59 | HMAEVTLTVREQEVLHLLARGMSNGEMAAHLYVEPTTIKYHLTGLLQKTGSRDRLQAVLWGIRAGMVH | -2.81
60 | HMAEWIYGKNVVKQSIEEGMVLKLILQRKEDPLFVLAQEKQIPVEILDRHKMTSLVKSDRHQGVAAQI | -0.742
61 | HMAFEDYAGEYRSAADFAESLHEDTGTEIPESLRYYIDWQALARDMALNGEIMVFQTGFDEVHIFWS | -0.63
62 | HMAFEITSAERTRLEDIARKGLTAYTAEWKQLPASEKKALNKTGLQDFLKSMAADADSAREEEA | 0.0228
63 | HMAFKEQLKAARLAKGYTQEQLATAIGVAKSTFTGYEKGNSEPNMLTIKKLMEILEVDANYLWY | -2.91
64 | HMAFRWQQIADTITSMIANGSYPRGSRLPTEAALADSFGVNRHTVRRAVAALRDTGLVQPRQGAGVFVIG | -2.02
65 | HMAFYQDIAVDLRKQIIDGVYPKNSRLPNQAELAKLYTTSRVTIQKALKILQIEGLIEGRQGSGSYVKGP | -2.11
66 | HMAGHKVDFSELPARSQAFIGKNFPTEMVKNVEMERKDAKDHYTVLLSNGTKVMFDGTSGELTGV | 0.0762
67 | HMAGISQGLAENVERRITTLLREQKEVPVHDIDFPGISRETVGQVLHQMVQEEKLLLDDGMISLSPNQ | 0.181
68 | HMAGPAGASEVANARDGDDETPLHMAARGGYPGIVRMLLAAGAKADAKSAAGLFPWNYAEDGSELHALLPR | 0.139
69 | HMAGPTIVTNSQGVPNYHLVKRGDTVSQIAQRYGLNYRQIGAINNLDSKYTIYSGQWLKLWQG | -1.37
70 | HMAGQWQQDQNGWKYKTDNGDHMKNTWYQDSDSRWYYFGPDGYMKSSTMTPDGYVVGSDGAWIE | -0.662
